Assay results published in the supplement of paper PMC10567573.

B1: SLC22A15 (parent)
chain: IAQYALLGYFIRSWRTLAILVNLQ

Variants of: B1
Assay: protein stability index of a GFP-peptide fusion (GPS, HEK-293T) (PSI 1-6); higher = more stable
Conditions: c terminus: a fixed tail appended
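Also: lentivirally expressed fusions sorted by FACS into six bins by GFP to DsRed ratio, PSI derived from sequencing read proportions per bin multiplied by bin number.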

**Q.** With IAQYALLGYFIRSWRTLAILANLQ [V21A] as the variant, how does the protein stability index read?
**A.** 2.78

**Q.** For IAQYALLGYFIRSWRTLAILSNLQ [V21S], which protein stability index is on record?
**A.** 2.08

**Q.** With IAQYALLGYFIRSWRTLAILQNLQ [V21Q] as the variant, how does the protein stability index read?
**A.** 2.24

**Q.** With IAQYALLGYFIRSWRTLAILTNLQ [V21T] as the variant, how does the protein stability index read?
**A.** 3.6

**Q.** With IAQYALLGYFIRSWRTLAILNNLQ [V21N] as the variant, how does the protein stability index read?
**A.** 2.8

**Q.** With IAQYALLGYFIRSWRTLAILFNLQ [V21F] as the variant, how does the protein stability index read?
**A.** 2.86

**Q.** Which protein stability index does the source give for IAQYALLGYFIRSWRTLAILPNLQ [V21P] here?
**A.** 3.37

**Q.** For IAQYALLGYFIRSWRTLAILLNLQ [V21L], which protein stability index is on record?
**A.** 3.19

**Q.** With IAQYALLGYFIRSWRTLAILDNLQ [V21D] as the variant, how does the protein stability index read?
**A.** 2.85

**Q.** Which protein stability index does the source give for IAQYALLGYFIRSWRTLAILCNLQ [V21C] here?
**A.** 2.52

**Q.** For IAQYALLGYFIRSWRTLAILENLQ [V21E], which protein stability index is on record?
**A.** 2.14

**Q.** Which protein stability index does the source give for IAQYALLGYFIRSWRTLAILINLQ [V21I] here?
**A.** 4.67

**Q.** With IAQYALLGYFIRSWRTLAILYNLQ [V21Y] as the variant, how does the protein stability index read?
**A.** 2.37

**Q.** With IAQYALLGYFIRSWRTLAILHNLQ [V21H] as the variant, how does the protein stability index read?
**A.** 2.69

**Q.** Which protein stability index does the source give for IAQYALLGYFIRSWRTLAILGNLQ [V21G] here?
**A.** 1.76

**Q.** With IAQYALLGYFIRSWRTLAILRNLQ [V21R] as the variant, how does the protein stability index read?
**A.** 2.7

**Q.** With IAQYALLGYFIRSWRTLAILKNLQ [V21K] as the variant, how does the protein stability index read?
**A.** 2.38

**Q.** With IAQYALLGYFIRSWRTLAIAVNLQ [L20A] as the variant, how does the protein stability index read?
**A.** 3.21

**Q.** Which protein stability index does the source give for IAQYALLGYFIRSWRTLAIPVNLQ [L20P] here?
**A.** 3.33

**Q.** With IAQYALLGYFIRSWRTLAISVNLQ [L20S] as the variant, how does the protein stability index read?
**A.** 3.12

**Q.** Which protein stability index does the source give for IAQYALLGYFIRSWRTLAIWVNLQ [L20W] here?
**A.** 2.32

**Q.** With IAQYALLGYFIRSWRTLAIIVNLQ [L20I] as the variant, how does the protein stability index read?
**A.** 5.13

**Q.** With IAQYALLGYFIRSWRTLAINVNLQ [L20N] as the variant, how does the protein stability index read?
**A.** 2

**Q.** With IAQYALLGYFIRSWRTLAIVVNLQ [L20V] as the variant, how does the protein stability index read?
**A.** 2.1

**Q.** Which protein stability index does the source give for IAQYALLGYFIRSWRTLAIEVNLQ [L20E] here?
**A.** 2.77

**Q.** Which protein stability index does the source give for IAQYALLGYFIRSWRTLAIRVNLQ [L20R] here?
**A.** 3.09

**Q.** With IAQYALLGYFIRSWRTLAIHVNLQ [L20H] as the variant, how does the protein stability index read?
**A.** 3.94

**Q.** For IAQYALLGYFIRSWRTLAIDVNLQ [L20D], which protein stability index is on record?
**A.** 2.57

**Q.** Which protein stability index does the source give for IAQYALLGYFIRSWRTLAITVNLQ [L20T] here?
**A.** 2.91

**Q.** With IAQYALLGYFIRSWRTLAIGVNLQ [L20G] as the variant, how does the protein stability index read?
**A.** 3.27

**Q.** For IAQYALLGYFIRSWRTLAIQVNLQ [L20Q], which protein stability index is on record?
**A.** 3.19

**Q.** With IAQYALLGYFIRSWRTLAIYVNLQ [L20Y] as the variant, how does the protein stability index read?
**A.** 2.76

**Q.** For IAQYALLGYFIRSWRTLAICVNLQ [L20C], which protein stability index is on record?
**A.** 3.7

**Q.** With IAQYALLGYFIRSWRTLAIKVNLQ [L20K] as the variant, how does the protein stability index read?
**A.** 2.38

**Q.** Which protein stability index does the source give for IAQYALLGYFIRSWRTLAIMVNLQ [L20M] here?
**A.** 3.89

**Q.** Which protein stability index does the source give for IAQYALLGYFILSWRTLAILVNLQ [R12L] here?
**A.** 2.94

**Q.** With IAQYALLGYFIISWRTLAILVNLQ [R12I] as the variant, how does the protein stability index read?
**A.** 3.48

**Q.** Which protein stability index does the source give for IAQYALLGYFIHSWRTLAILVNLQ [R12H] here?
**A.** 2.5

**Q.** With IAQYALLGYFIYSWRTLAILVNLQ [R12Y] as the variant, how does the protein stability index read?
**A.** 3.46

**Q.** With IAQYALLGYFIGSWRTLAILVNLQ [R12G] as the variant, how does the protein stability index read?
**A.** 2.97

**Q.** With IAQYALLGYFIESWRTLAILVNLQ [R12E] as the variant, how does the protein stability index read?
**A.** 3.81

**Q.** Which protein stability index does the source give for IAQYALLGYFIPSWRTLAILVNLQ [R12P] here?
**A.** 2.67

**Q.** Which protein stability index does the source give for IAQYALLGYFIQSWRTLAILVNLQ [R12Q] here?
**A.** 1.93

**Q.** For IAQYALLGYFISSWRTLAILVNLQ [R12S], which protein stability index is on record?
**A.** 3.61

**Q.** For IAQYALLGYFIDSWRTLAILVNLQ [R12D], which protein stability index is on record?
**A.** 1.86

**Q.** Which protein stability index does the source give for IAQYALLGYFICSWRTLAILVNLQ [R12C] here?
**A.** 2.67

**Q.** For IAQYALLGYFIVSWRTLAILVNLQ [R12V], which protein stability index is on record?
**A.** 2.34

**Q.** Which protein stability index does the source give for IAQYALLGYFITSWRTLAILVNLQ [R12T] here?
**A.** 1.97

**Q.** For IAQYALLGYFIFSWRTLAILVNLQ [R12F], which protein stability index is on record?
**A.** 3.61

**Q.** With IAQYALLGYFIMSWRTLAILVNLQ [R12M] as the variant, how does the protein stability index read?
**A.** 2.98

**Q.** For IAQYALLGYFIWSWRTLAILVNLQ [R12W], which protein stability index is on record?
**A.** 2.88

**Q.** Which protein stability index does the source give for IAQYALLGYFINSWRTLAILVNLQ [R12N] here?
**A.** 2.27

**Q.** With IAQYALLGYFIKSWRTLAILVNLQ [R12K] as the variant, how does the protein stability index read?
**A.** 2.95

**Q.** Which protein stability index does the source give for IAQYALLGYFIRSWRTLGILVNLQ [A18G] here?
**A.** 3.28

**Q.** With IAQYALLGYFIRSWRTLIILVNLQ [A18I] as the variant, how does the protein stability index read?
**A.** 3.41

**Q.** Which protein stability index does the source give for IAQYALLGYFIRSWRTLHILVNLQ [A18H] here?
**A.** 2.25

**Q.** Which protein stability index does the source give for IAQYALLGYFIRSWRTLWILVNLQ [A18W] here?
**A.** 2.12

**Q.** For IAQYALLGYFIRSWRTLYILVNLQ [A18Y], which protein stability index is on record?
**A.** 3.11

**Q.** For IAQYALLGYFIRSWRTLRILVNLQ [A18R], which protein stability index is on record?
**A.** 2.01

**Q.** For IAQYALLGYFIRSWRTLQILVNLQ [A18Q], which protein stability index is on record?
**A.** 2.15

**Q.** With IAQYALLGYFIRSWRTLSILVNLQ [A18S] as the variant, how does the protein stability index read?
**A.** 3.54

**Q.** With IAQYALLGYFIRSWRTLNILVNLQ [A18N] as the variant, how does the protein stability index read?
**A.** 3.65

**Q.** With IAQYALLGYFIRSWRTLDILVNLQ [A18D] as the variant, how does the protein stability index read?
**A.** 2.57

**Q.** With IAQYALLGYFIRSWRTLPILVNLQ [A18P] as the variant, how does the protein stability index read?
**A.** 3

**Q.** For IAQYALLGYFIRSWRTLMILVNLQ [A18M], which protein stability index is on record?
**A.** 2.17

**Q.** For IAQYALLGYFIRSWRTLKILVNLQ [A18K], which protein stability index is on record?
**A.** 1.91

**Q.** For IAQYALLGYFIRSWRTLCILVNLQ [A18C], which protein stability index is on record?
**A.** 2.44

**Q.** With IAQYALLGYFIRSWRTLFILVNLQ [A18F] as the variant, how does the protein stability index read?
**A.** 3.68

**Q.** With IAQYALLGYFIRSWRTLLILVNLQ [A18L] as the variant, how does the protein stability index read?
**A.** 3.84

**Q.** Which protein stability index does the source give for IAQYALLGYFIRSYRTLAILVNLQ [W14Y] here?
**A.** 3.53

**Q.** Which protein stability index does the source give for IAQYALLGYFIRSFRTLAILVNLQ [W14F] here?
**A.** 2.86

**Q.** Which protein stability index does the source give for IAQYALLGYFIRSMRTLAILVNLQ [W14M] here?
**A.** 2.62

**Q.** For IAQYALLGYFIRSHRTLAILVNLQ [W14H], which protein stability index is on record?
**A.** 4.19

**Q.** Which protein stability index does the source give for IAQYALLGYFIRSPRTLAILVNLQ [W14P] here?
**A.** 3.8

**Q.** For IAQYALLGYFIRSKRTLAILVNLQ [W14K], which protein stability index is on record?
**A.** 1.79

**Q.** Which protein stability index does the source give for IAQYALLGYFIRSERTLAILVNLQ [W14E] here?
**A.** 1.91

**Q.** Which protein stability index does the source give for IAQYALLGYFIRSTRTLAILVNLQ [W14T] here?
**A.** 2.6

**Q.** For IAQYALLGYFIRSQRTLAILVNLQ [W14Q], which protein stability index is on record?
**A.** 3.34

**Q.** For IAQYALLGYFIRSVRTLAILVNLQ [W14V], which protein stability index is on record?
**A.** 2.46

**Q.** For IAQYALLGYFIRSLRTLAILVNLQ [W14L], which protein stability index is on record?
**A.** 3.89

**Q.** Which protein stability index does the source give for IAQYALLGYFIRSDRTLAILVNLQ [W14D] here?
**A.** 2.61

**Q.** Which protein stability index does the source give for IAQYALLGYFIRSRRTLAILVNLQ [W14R] here?
**A.** 2.52

**Q.** For IAQYALLGYFIRSNRTLAILVNLQ [W14N], which protein stability index is on record?
**A.** 3.47

**Q.** For IAQYALLGYFIRSIRTLAILVNLQ [W14I], which protein stability index is on record?
**A.** 3.04

**Q.** Which protein stability index does the source give for IAQYALLGYFIRSCRTLAILVNLQ [W14C] here?
**A.** 4

**Q.** With IAQYALLGYFIRSGRTLAILVNLQ [W14G] as the variant, how does the protein stability index read?
**A.** 3.14

**Q.** With IAQYALLGYFIRSWRTLAILVMLQ [N22M] as the variant, how does the protein stability index read?
**A.** 2.6

**Q.** With IAQYALLGYFIRSWRTLAILVQLQ [N22Q] as the variant, how does the protein stability index read?
**A.** 3.36

**Q.** Which protein stability index does the source give for IAQYALLGYFIRSWRTLAILVILQ [N22I] here?
**A.** 3.28

**Q.** Which protein stability index does the source give for IAQYALLGYFIRSWRTLAILVALQ [N22A] here?
**A.** 2.95

**Q.** For IAQYALLGYFIRSWRTLAILVELQ [N22E], which protein stability index is on record?
**A.** 2.57

**Q.** For IAQYALLGYFIRSWRTLAILVHLQ [N22H], which protein stability index is on record?
**A.** 2.27

**Q.** For IAQYALLGYFIRSWRTLAILVDLQ [N22D], which protein stability index is on record?
**A.** 3.52

**Q.** For IAQYALLGYFIRSWRTLAILVKLQ [N22K], which protein stability index is on record?
**A.** 2.52
